Assay results: article PMC8152475 (Biomedicines, 2021)

T1: TBK1 (Homo sapiens, UniProt Q9UHD2)
T1 sequence (Q9UHD2 1-729): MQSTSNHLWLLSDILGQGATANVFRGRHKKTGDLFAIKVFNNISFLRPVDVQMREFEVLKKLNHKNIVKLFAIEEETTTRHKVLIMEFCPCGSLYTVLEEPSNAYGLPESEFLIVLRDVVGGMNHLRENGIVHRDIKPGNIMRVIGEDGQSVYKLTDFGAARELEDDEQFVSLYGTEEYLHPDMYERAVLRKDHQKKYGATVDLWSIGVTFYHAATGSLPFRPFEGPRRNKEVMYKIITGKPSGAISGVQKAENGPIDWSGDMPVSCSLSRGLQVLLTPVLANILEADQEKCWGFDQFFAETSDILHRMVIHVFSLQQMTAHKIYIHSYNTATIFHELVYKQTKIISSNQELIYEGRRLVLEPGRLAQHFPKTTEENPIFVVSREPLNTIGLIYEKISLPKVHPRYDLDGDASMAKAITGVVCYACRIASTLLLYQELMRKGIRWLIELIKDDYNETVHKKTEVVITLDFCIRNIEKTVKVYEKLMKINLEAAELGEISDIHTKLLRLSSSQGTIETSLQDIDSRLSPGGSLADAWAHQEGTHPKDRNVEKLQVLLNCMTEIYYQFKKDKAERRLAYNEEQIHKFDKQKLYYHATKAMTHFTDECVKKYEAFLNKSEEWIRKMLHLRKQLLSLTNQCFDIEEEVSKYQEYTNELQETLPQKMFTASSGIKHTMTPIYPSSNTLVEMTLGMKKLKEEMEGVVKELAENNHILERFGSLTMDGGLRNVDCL


Legend:
[1] = system: p47phox; type: binding
[2] = target: T1, TBK1; type: binding

| Molecule | domain of p47phox required for binding [1] | domain of TBK1 required for binding [2] |
| --- | --- | --- |
| MPT63: secretory immunodominant antigen of MTB (protein) AYPITGKLGSELTMTDTVGQVVLGWKVSDLKSSTAVIPGYPVAGQVWEATATVNAIRGSVTPAVSQFNARTADGINYRVLWQAAGPDTISGATIPQGEQSTGKIYFDVTGPSPTIVAMNNGMEDLLIWEP | the PX domain in p47phox was important for the interaction with MPT63 | the kinase domain in TBK1 was essential to bind MPT63 |
| MPT64: secretory immunodominant antigen of MTB, located in the RD2 region (protein) APKTYCEELKGTDTGQACQIQMSDPAYNINISLPSYYPDQKSLENYIAQTRDKFLSAATSSTPREAPYELNITSATYQSAIPPRGTQAVVLKVYQNAGGTHPTTTYKAFDWDQAYRKPITYDTLWQADTDPLPVVFPIVQGELSKQTGQQVSIAPNAGLDPVNYQNFAVTNDGVIFFFNPGELLPEAAGPTQVLVPRSAIDSMLA |  | The kinase domain (1–301) in TBK1 and HK2 domain in HK2 were found to be essential for their interaction with MPT64 |
